Measurements from the supplement of paper PMC12042874.
± gives the uncertainty stated by the source.

experiment: amyloid nucleation score (Sup35N fusion, yeast selection) (log enrichment); library NNK2; higher = more nucleation; inactive = no reads after selection
Outline: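 Random libraries were run with three technical output replicates. In each, psi-negative yeast expressing Sup35N fused to peptides of 20 random codons were induced 24 hours with 100 μM copper sulfate and grown 7 days at 30°C on medium lacking adenine and uracil, and input and output plasmid inserts were Illumina-sequenced. The nucleation score is the DiMSum log enrichment of output over input reads, centred on the mode score of non-aggregating sequences, and sequences under 100 input reads were excluded.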

Substance	amyloid nucleation score
DVSSPVPGRGQCCVDGCWEF	6.153 ± 0.059
LGGWLNGKGDPSMTASTSAS	0.799 ± 0.32
VDCCSFSLWVVW	3.98 ± 0.093
TSISYLRVYTRSFMRSLSGL	inactive
RIFRYNDTVLCVLLGTNVGD	-0.418 ± 1.1
MSRWKVHFTMRTSPCIVNEH	1.17 ± 0.45
PMKLTILDTNGCNINRAPFS	-1.02 ± 1.1
LLLNLMLVHTSMTFVRIKLR	3.13 ± 0.12
HDYRVTYDVF	-1.24 ± 1.1
VSTIIWCIR	5.143 ± 0.047
LHNLAAGNSRLTSNLMFALA	inactive
KLVLSNSALFRRTFAINPV	0.626 ± 0.8
FFSFGCGSWRTVIVTSRSL	-0.299 ± 1
RMRLPPFPIDWSDAYLFWHS	1.28 ± 0.38
VKVLSLVFTGMVPMQYSRYA	11.31 ± 0.049
KVRLGTLTYICYANSNRLCP	2.37 ± 0.12
YLTEALPDRSRYRSTSVMCV	1.86 ± 0.32
FFWSLGSYILHYC	inactive
DESWETIFLYKCRGQNW	-0.213 ± 1.1
SLRWL	-0.18 ± 0.74
TNPASAGTYSRSYEFCSLRL	1.59 ± 0.18
GIIDLHAYLFKVHEWAHPHR	6.07 ± 0.063

Substance	amyloid nucleation score
RFNWFFRHV	0.524 ± 0.81
VGTAKYYFKGCLGTPRSNNL	inactive
WTRCPQSRYHVLVRVYSYWA	0.193 ± 0.27
LASTALVLDP	1.14 ± 0.31
TCVCWGPCRSV	-0.895 ± 1
DFSFVANCSDYLLNILFKGE	-0.066 ± 0.74
TTVSWENGSRVINIVFILMF	5.045 ± 0.04
HQMRFPGSPMATVGSLRTCR	-0.528 ± 0.42
DRLGSRERDG	0.74 ± 0.2
VYMGSDL	6.07 ± 0.072
DIPTMVNGILYFTGYDPRVS	-0.647 ± 1.1
SVGEFSVRWAACGDLWCW	0.725 ± 0.2
NHHTEDMVK	0.367 ± 0.32
NLFQRCREGDMVRNSSVLDG	-0.017 ± 1
WYAAGLKNR	-0.418 ± 1
RIFQLSTSGN	0.072 ± 1.1
LNRCLDHRWIPKCVC	1.36 ± 0.46
TSESSV	-0.36 ± 0.64
RSEDGRGGSKGQIIRVVMNW	4.76 ± 0.062
LANKAYYVCLV	0.022 ± 0.62
NHMKFAGLGGCYSYCTFLVD	6.587 ± 0.045
PCSANWRLYIANISGSFPMR	5.34 ± 0.083

Substance	amyloid nucleation score
KRQSRAVMVS	0.037 ± 0.63
ENFRGTFKIRRRCCL	-0.251 ± 0.76
ILKPYCVCDLSNKLE	0.199 ± 0.4
TSLYRVSKM	-0.945 ± 0.76
ILLGYIISR	-0.636 ± 0.79
EKLRNQFKP	-0.569 ± 1.1
DFANFMGCMVNEAPRLHFAL	0.404 ± 0.38
FCAQITPHRISWLWWQINRQ	-0.304 ± 1.1
YLPRRSGRLRPGMRNNMPFR	0.12 ± 0.28
LVTVSVVPSWSAVRPTGMNV	0.84 ± 0.46
DVDFRSMCEGTFSLNDQPNR	-0.825 ± 0.78
IFNVSMSIVRSLVITCMWGL	5.321 ± 0.043
YMRVLYIRRLWIHFL	1.92 ± 0.18
FVRLTRIVESGYYDIFGKIK	-0.429 ± 0.39
KTMANI	-0.403 ± 0.37
MFVGSGRDCTVTVPFRQPTG	1.86 ± 0.29
HKRCVITLLWADL	0.344 ± 0.41
DEGSNIGHGSLDIHRDCALL	-0.264 ± 0.23
PSFFCKWKSLYPTVNVCVVN	-0.073 ± 0.49
SWCVNVLAYSEKAFSRCVVM	8.583 ± 0.048
NMDYDIKEQFLSRVPSPRES	-0.95 ± 0.78
VSVDHSDFRLNAVSE	1 ± 0.17

Substance	amyloid nucleation score
MSGWVAGLHLDVCGVDYAGG	1.9 ± 0.29
RMLADGVTLVPCWALQL	0.57 ± 0.43
GLYTKT	0.028 ± 0.14
HLSCKVIENGLWTSFCFKQE	-1.04 ± 0.54
AKVACKDGLHACESESGFIW	1.54 ± 0.3
SDRMLCEGNYCWCVSENVLL	6.12 ± 0.061
SGQYKENYGGFHHMLVRWRC	-0.042 ± 0.27
CGGAGRMLWGLADSNAALEA	0.163 ± 0.63
LLPRCDGGVLVHLNDKSYKL	1.32 ± 0.39
ALPVLIINERTRWGVTLLLP	0.421 ± 0.39
LVYVT	0.434 ± 0.37
TIFMAYTWLNYTVAFLSNVR	-1.01 ± 0.61
RVMMSRISYSLSCVSADKVR	0.288 ± 0.24
NINNFLSISIFNGYASHVNC	inactive
TYSLICQSTTKRFWVWKATL	-0.619 ± 1
QVCRDDYEVDFLGCGCPRGH	-0.588 ± 0.44
NTLGSELLLFA	1.75 ± 0.2
ARNSGWTATSSVYPLKTPAT	1.37 ± 0.42
LLLLF	-1.58 ± 0.75
TSMVNSFYKTRGTIK	inactive
GRGADKLTIG	0.288 ± 0.36
